Literature values, collected in PMC10449480.

Molecular target: tryptophanyl-tRNA synthetase (Geobacillus stearothermophilus) (UniProt P00953)

For “tryptophanyl-tRNA synthetase (from UniProt P00953)”, the Kd is given as 5 nM.
